Assay results reported in patent US20250186614A1, “COMPACT DRUG RESPONSIVE DOMAINS FOR REGULATION OF FUNCTION/ABUNDANCE AND DELIVERY OF POLYPEPTIDE PAYLOADS” (OBSIDIAN THERAPEUTICS, INC., priority 2022, published 2025).
Where a chain is given by its changes, count along the chain named. Names may count otherwise. Like-named read-outs stand apart in the source and are kept apart here.

Legend:
Assay type in all cases: cell-based
[1] = tested on: Jurkat cells; test: Tacrolimus dose response of FKBP13-AcGFP-mCherry constructs stably transduced into Jurkat cells, GFP MFI by flow cytometry; conditions: tacrolimus, Table 14; for Tacrolimus FC: fold change
In short: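 Jurkat E6-1 cells lentivirally transduced with FKBP13-AcGFP-mCherry constructs to 10-25% mCherry+ (day 5) were dosed with tacrolimus. GFP geometric MFI in mCherry+ cells was measured by flow cytometry and fitted to dose-response curves.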

[2] = tested on: Jurkat cells; test: Sirolimus (rapamycin) dose response of FKBP13 constructs stably transduced into Jurkat cells, flow cytometry; conditions: rapamycin, Table 14; for Rapamycin FC: fold change
Experimental: Normalized EC50 values were calculated from the mCherry normalized GFP MFI values, which accounted for any differences in mCherry intensity between samples.

[3] = Example 4: dose response of FKBP constructs 160-255, Ec50, Ec90 and fold change (raw and normalized to mCherry); conditions: for FC (fold change): fold change during initial analysis
Experimental: Additional experiments were performed for constructs FKBP-160-292.

[4] = read-out: Tacrolimus EC90 (Norm), normalized
[5] = normalized, read-out: Rapamycin EC90 (Norm)
[6] = FKBP constructs 160-255, not normalized, read-out: EC90
[7] = normalized to mCherry, read-out: EC90 (Norm)

B1: FKBP-177 (protein)
chain: HCPIKSRKGDVLHAHYTGKLEDGTEFDSSLPRNQPFVFSGGTGEVIKGWDQGLLGMCEGEKRKLVIPSELGYGERGWPPKIPGGATLVFEVELLKIER
modifications: Description of sequence: Construct Name: FKBP-177; Mutation(s): Q72R Q84E A117W DRD M54AL80G
[1]; [4]
  EC90: 23.9 µM
[1]; read-out: Tacrolimus EC90
  EC90: 18.7 µM
[1]
  Tacrolimus FC: 22.3
[2]; read-out: Rapamycin EC90
  EC90: 5.28 µM
[2]
  Rapamycin FC: 2.3
[2]; [5]
  EC90: 6.33 µM
[3]; [6]
  EC90: 18.7 µM
[3]
  FC (fold change): 22.3
[3]; [7]
  EC90: 23.9 µM

B2: FKBP-187 (protein)
chain: B1 chain with V45R
modifications: Description of sequence: Construct Name: FKBP-187; Mutation(s): Q72R Q84E A117W V85R DRD M54A L80G
[1]; [4]
  EC90: 21.3 µM
[1]; read-out: Tacrolimus EC90
  EC90: 14.5 µM
[1]
  Tacrolimus FC: 24
[2]; read-out: Rapamycin EC90
  EC90: 5.31 µM
[2]
  Rapamycin FC: 2.3
[2]; [5]
  EC90: 5.66 µM
[3]; [6]
  EC90: 14.5 µM
[3]
  FC (fold change): 24.0
[3]; [7]
  EC90: 21.3 µM

B3: FKBP-178 (protein)
chain: B1 chain with F38S, G40L
modifications: Description of sequence: Construct Name: FKBP-178; Mutation(s): Q72R Q84E A117W DRD M54AF78S
[1]; [4]
  EC90: 28.4 µM
[1]; read-out: Tacrolimus EC90
  EC90: 22.3 µM
[1]
  Tacrolimus FC: 36.4
[2]; read-out: Rapamycin EC90
  EC90: 16.8 µM
[2]
  Rapamycin FC: 2.9
[2]; [5]
  EC90: 151 µM
[3]; [6]
  EC90: 22.3 µM
[3]
  FC (fold change): 36.4
[3]; [7]
  EC90: 28.4 µM

B4: FKBP-186 (protein)
chain: B1 chain with G40L, V45R, G76E
modifications: Description of sequence: Construct Name: FKBP-186; Mutation(s): Q72R Q84E A117W V85R DRD M54A G116E
[1]; [4]
  EC90: 21 µM
[1]; read-out: Tacrolimus EC90
  EC90: 17.9 µM
[1]
  Tacrolimus FC: 19
[2]; read-out: Rapamycin EC90
  EC90: 5.87 µM
[2]
  Rapamycin FC: 1.7
[2]; [5]
  EC90: 5.22 µM
[3]; [6]
  EC90: 17.9 µM
[3]
  FC (fold change): 19.0
[3]; [7]
  EC90: 21 µM

B5: FKBP-181 (protein)
chain: B1 chain with D10L, G40L, V45R
modifications: Description of sequence: Construct Name: FKBP-181; Mutation(s): Q72R Q84E A117W V85R DRD M54A D50L
[1]; [4]
  EC90: 5.06 µM
[1]; read-out: Tacrolimus EC90
  EC90: 14.1 µM
[1]
  Tacrolimus FC: 52
[2]; read-out: Rapamycin EC90
  EC90: 11.8 µM
[2]
  Rapamycin FC: 15.5
[2]; [5]
  EC90: 11.5 µM
[3]; [6]
  EC90: 14.1 µM
[3]
  FC (fold change): 52.0
[3]; [7]
  EC90: 5.06 µM

B6: FKBP-182 (protein)
chain: B1 chain with G40L, V45R, M56W
modifications: Description of sequence: Construct Name: FKBP-182; Mutation(s): Q72R Q84E A117W V85R DRD M54A M96W
[1]; [4]
  EC90: 0.928 µM
[1]; read-out: Tacrolimus EC90
  EC90: 0.819 µM
[1]
  Tacrolimus FC: 64.9
[2]; read-out: Rapamycin EC90
  EC90: 3.84 µM
[2]
  Rapamycin FC: 21.5
[2]; [5]
  EC90: 4.11 µM
[3]; [6]
  EC90: 0.819 µM
[3]
  FC (fold change): 64.9
[3]; [7]
  EC90: 0.928 µM

B7: FKBP-185 (protein)
chain: B1 chain with D10A, T17I, G40L, V45R, I96L
modifications: Description of sequence: Construct Name: FKBP-185; Mutation(s): Q72R Q84E A117W V85R DRD M54A D50L T57I I136L
[1]; [4]
  EC90: 23.4 µM
[1]; read-out: Tacrolimus EC90
  EC90: 22.1 µM
[1]
  Tacrolimus FC: 40.2
[2]; read-out: Rapamycin EC90
  EC90: 5.34 µM
[2]
  Rapamycin FC: 2
[2]; [5]
  EC90: 22 µM
[3]; [6]
  EC90: 22.1 µM
[3]
  FC (fold change): 40.2
[3]; [7]
  EC90: 23.4 µM
